Several values for one entry are separate records, joined by “and”; a condition that tells them apart may be missing. Identical values can stand only once.
T1: GCase (Homo sapiens, UniProt P04062)
T1 construct: purchased Shire Human Genetic Therapies, Inc. Vpriv
T1 sequence (P04062 40-536): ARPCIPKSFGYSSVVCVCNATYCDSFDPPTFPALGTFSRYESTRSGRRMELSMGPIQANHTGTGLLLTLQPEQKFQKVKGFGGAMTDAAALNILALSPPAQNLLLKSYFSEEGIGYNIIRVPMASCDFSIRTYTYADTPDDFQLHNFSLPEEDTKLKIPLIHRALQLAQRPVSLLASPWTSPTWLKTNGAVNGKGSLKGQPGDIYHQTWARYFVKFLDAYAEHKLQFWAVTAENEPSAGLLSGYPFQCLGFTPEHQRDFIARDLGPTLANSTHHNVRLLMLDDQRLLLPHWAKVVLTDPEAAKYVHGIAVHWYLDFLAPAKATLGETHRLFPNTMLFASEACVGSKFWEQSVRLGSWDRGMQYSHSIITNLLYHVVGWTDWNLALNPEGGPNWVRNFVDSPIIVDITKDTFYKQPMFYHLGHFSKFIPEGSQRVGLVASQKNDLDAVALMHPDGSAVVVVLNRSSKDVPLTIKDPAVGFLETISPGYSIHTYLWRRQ

T2: recombinant wild type GCase (Homo sapiens, UniProt P04062)
T2 construct: purchased Shire Human Genetic Therapies, Inc. Vpriv
T2 sequence (P04062 40-536): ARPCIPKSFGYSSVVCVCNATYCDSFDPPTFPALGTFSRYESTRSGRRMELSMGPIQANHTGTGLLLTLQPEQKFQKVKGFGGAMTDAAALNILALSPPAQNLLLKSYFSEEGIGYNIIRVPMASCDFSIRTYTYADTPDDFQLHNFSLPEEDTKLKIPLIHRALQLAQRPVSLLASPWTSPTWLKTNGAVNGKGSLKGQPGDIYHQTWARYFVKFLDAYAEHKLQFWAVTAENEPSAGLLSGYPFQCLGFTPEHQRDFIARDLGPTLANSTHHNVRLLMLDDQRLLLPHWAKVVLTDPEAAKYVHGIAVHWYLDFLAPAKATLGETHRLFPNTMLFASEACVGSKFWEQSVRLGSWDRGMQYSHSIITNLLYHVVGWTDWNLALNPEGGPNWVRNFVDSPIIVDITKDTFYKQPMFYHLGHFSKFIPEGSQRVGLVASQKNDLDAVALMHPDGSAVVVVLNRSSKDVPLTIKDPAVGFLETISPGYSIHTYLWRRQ


Assays:
GCase = molecular target: T1, GCase; assay: Fluorescence polarization (FP) assay, probe titrated with enzyme; type: binding; conditions: probe 50 nM, enzyme 5 nM to 10 μM
Protocol: The fluorescent probe 3 (25 nL/well, 50 nM final concentration) was transferred to a 384-well black plate using a Labcyte Echo 550 Liquid Handler system. The 25 μL/well enzyme dilutions with GCase enzyme activity buffer were added to the plate, which was shaken at room temperature in dark for 20 min. The final titration was 5 nM to 10 μM, 10 concentrations, 2 times dilution. The fluorescence polarization was measured in Molecular Devices Analyst GT with Ex=535 nm and Em=580 nm, G Factor=1.05.
The fluorescent probe 3 (25 nL/well, 50 nM final concentration) was transferred to a 384-wells black plate by using Labcyte Echo 550 Liquid Handler system. The 25 μL/well enzyme dilutions in GCase enzyme activity buffer (the final titration was 5 nM to 10 μM, 10 concentrations, 2 times dilution) were added to the plate, and shook at room temperature in dark for 20 min. The fluorescence polarization was measured in Molecular Devices Analyst GT with Ex=535 nm and Em=580 nm, G Factor=1.05.

[1] = molecular target: T2, recombinant wild type GCase; assay: Covalent binding assay: activity of GCase activated by probe 4; type: biochemical; conditions: natural substrate assay; covalent activation
Protocol: To the recombinant wild type enzyme (22 μM, 95 μL, 1 equiv) in 0.1 M phosphate buffer (pH 7.2) was added 2,5-dioxopyrrolidin-1-yl 3-(2-(2-(4-(4-(2,4-dimethylpyrrolo[1,2-a]pyrimidine-8-carboxamido)phenyl)-1H-1,2,3-triazol-1-yl)ethoxy)ethoxy)propanoate (4) in DMSO (0.89 mM, 5 μL, 2 equiv) in one portion, and was vortexed for 5 sec immediately. At indicated time points, the reaction solution (2 μL) was sampled and diluted (1:3125 dilution) into the assay buffer (50 mM citric acid, 176 mM K2HPO4, and 0.01% Tween-20 at pH 5.9). After 2 h the reaction solution was dialyzed three times with 0.1 M phosphate buffer (pH 7.2). The enzyme was adjusted to the same concentration and sampled for activity. The dilution solutions were assayed with three substrates, resorufin substrate, 4-MU substrate, and natural substrate using the method in Example 5 and Example 6 without adding compounds.
The probe 4 was subjected to the covalent binding assay against GCase. The reaction conditions, including the buffer pH value, the concentration of the protein and probe, and the reaction temperature were carefully adjusted to achieve the maximum activation. With the optimized reaction condition, the enzyme activity was activated in a time-dependent manner (FIG. 5). The enzyme could be activated by probe 4 with around 22 and 28 folds activity comparing to the wt. GCase in the 4MU-Glc substrate (FIG. 5A) and red substrate (FIG. 5B) enzyme activity assay respectively.

[2] = Enzyme stability assay in pH 4.7 buffer; type: physicochemical
Description: To test whether probe 4 changed the enzyme stability of GCase, we used two environments for GCase activity stability assay (Tekoah, Tzaban et al. 2013). The first one was citrate/phosphorylate buffer, which was at pH 4.7. In this condition, the wt. GCase only had about 15% activity left on day 4 (FIGS. 6A and 6B), which is similar to the previous research (Tekoah, Tzaban et al. 2013). An interesting finding was that even on day 10, activated GCase still had more than 20% activity left. […] One possible reason for the higher enzyme activity in low pH buffer was that activated GCase was stabilized by the covalent compound, and was more difficult to unfold.

U937 macrophage cells = assay: U937 macrophage uptake assay; type: cell-based, human; conditions: for activity compared to endogenous GC: PMA-induced U937 cells, 4MU-β-glc substrate
Protocol: Human monocyte cell line U937 was optimally differentiated into macrophages by the addition of 75 ng/ml PMA (Brumshtein, Salinas et al. 2010) to the monocyte culture for 3 days (in 75 cm^2 flasks). Macrophages were enriched by adhesion to the culture plate and identified by morphology and receptor staining.
The assay was carried out according to the reported method (Tekoah, Tzaban et al. 2013) with slight modification. The enzyme was treated with compound 4 or DMSO at pH 7.2 for 60 min as described above, then dialyzed with PBS. U937 cells, after differentiation (˜1.6*10^6 cells), were incubated with 60 μg/ml of the activated enzymes and wt. enzyme in F12K medium for 10 min at 5% CO2, 37° C. incubator. The cells were then washed twice with ice cold PBS enriched with Mannan (1 mg/ml). To further ensure release of any proteins bound non-specifically to the membrane half of the cells were washed with ice cold glycine buffer: (0.8% NaCl, 0.038% KCl, 0.01% MgCl2, 0.01% CaCl2, 0.7% glycine [pH 3]) followed by two additional cold PBS washes. The other half of the wells were used as controls for measuring total enzymatic activity (bound and internalized enzyme). The cells were lysed by adding β-glucocerebrosidase activity buffer (60 mM phosphate-citrate buffer; 0.15% Triton X-100; 0.125% sodium taurocholate, pH 5.5), followed by pipetting and one freeze/thaw cycle. The obtained lysates were subjected to determination of enzymatic activity using the colorimetric method detailed above. The total enzymatic activity was normalized to total soluble proteins as measured by Bradford assay. The effective uptake was calculated as the percentage of activity within the cells out of the total enzymatic activity of the controls.

Kd (GCase) | activity improvement [1] [folds] | Molecule | activity left ([2]; citrate/phosphate buffer pH 4.7, day 10) | activity compared to endogenous GC (U937 macrophage cells) | protein uptake level (U937 macrophage cells; Western blot, activated GCase vs wt. GCase, in words) | activity left ([2]; citrate/phosphate buffer pH 4.7, day 4)
710 nM and ~710 nM | – | Cc1cc(C)n2ccc(C(=O)Nc3ccc(-c4cn(CCOCCOCCNC(=O)c5ccc(-c6c7ccc(=[N+](C)C)cc-7oc7cc(N(C)C)ccc67)c(C(=O)[O-])c5)nn4)cc3)c2n1 [No. 4, 2-(3,6-Bis(dimethylamino)xanthylium-9-yl)-5-((2-(2-(2-(4-(4-(2,4-dimethylpyrrolo[1,2-a]pyrimidine-8-carboxamido)phenyl)-1H-1,2,3-triazol-1-yl)ethoxy)ethoxy)ethyl)carbamoyl)benzoate] | – | – | – | –
– | 16 | activated GCase: recombinant wild type GCase covalent modified by probe 4 (NHS ester) on lysine residues, 1-3 ligands (conjugate, UniProt P04062 40-536, looked up, covalent probe 4 on lysines, recombinant wild type GCase covalent modified by probe 4 (NHS ester) on lysine residues, 1-3 ligands) Lysosomal acid …: ARPCIPKSFGYSSVVCVCNATYCDSFDPPTFPALGTFSRYESTRSGRRMELSMGPIQANHTGTGLLLTLQPEQKFQKVKGFGGAMTDAAALNILALSPPAQNLLLKSYFSEEGIGYNIIRVPMASCDFSIRTYTYADTPDDFQLHNFSLPEEDTKLKIPLIHRALQLAQRPVSLLASPWTSPTWLKTNGAVNGKGSLKGQPGDIYHQTWARYFVKFLDAYAEHKLQFWAVTAENEPSAGLLSGYPFQCLGFTPEHQRDFIARDLGPTLANSTHHNVRLLMLDDQRLLLPHWAKVVLTDPEAAKYVHGIAVHWYLDFLAPAKATLGETHRLFPNTMLFASEACVGSKFWEQSVRLGSWDRGMQYSHSIITNLLYHVVGWTDWNLALNPEGGPNWVRNFVDSPIIVDITKDTFYKQPMFYHLGHFSKFIPEGSQRVGLVASQKNDLDAVALMHPDGSAVVVVLNRSSKDVPLTIKDPAVGFLETISPGYSIHTYLWRRQ | more than 20% | more than 25 folds | equal | –
– | – | wt. GCase: recombinant wt. enzyme velaglucerase alfa (Vpriv, Shire Human Genetic Therapies, Inc.) (protein, UniProt P04062 40-536, looked up, velaglucerase alfa) Lysosomal acid …: ARPCIPKSFGYSSVVCVCNATYCDSFDPPTFPALGTFSRYESTRSGRRMELSMGPIQANHTGTGLLLTLQPEQKFQKVKGFGGAMTDAAALNILALSPPAQNLLLKSYFSEEGIGYNIIRVPMASCDFSIRTYTYADTPDDFQLHNFSLPEEDTKLKIPLIHRALQLAQRPVSLLASPWTSPTWLKTNGAVNGKGSLKGQPGDIYHQTWARYFVKFLDAYAEHKLQFWAVTAENEPSAGLLSGYPFQCLGFTPEHQRDFIARDLGPTLANSTHHNVRLLMLDDQRLLLPHWAKVVLTDPEAAKYVHGIAVHWYLDFLAPAKATLGETHRLFPNTMLFASEACVGSKFWEQSVRLGSWDRGMQYSHSIITNLLYHVVGWTDWNLALNPEGGPNWVRNFVDSPIIVDITKDTFYKQPMFYHLGHFSKFIPEGSQRVGLVASQKNDLDAVALMHPDGSAVVVVLNRSSKDVPLTIKDPAVGFLETISPGYSIHTYLWRRQ | – | about 3 folds | – | about 15%

Reference: US9802942B2, “Substituted 4-methyl-pyrrolo[1,2-A]pyrimidine-8-carboxamide compounds and uses thereof for modulating glucocerebrosidase activity” (Northwestern University, priority 2015, dated 2017)
